The values below come from PMC5137425.

The target in assay [1] is Human ubiquitin (monoUb) (human) (UniProt P0CG48). As to the kind of experiment: NMR titration.
The target of assay [2] is C. elegans TDP2 UBA domain, CeTDP2 (41-100) (C. elegans) (UniProt Q9XWG3). As to the kind of experiment: fluorescence polarisation.
Assay [3] shares this target. As to the kind of experiment: NMR titration.

Turning to “C. elegans TDP2 UBA domain, CeTDP2 (41-100) (from UniProt Q9XWG3 41-100) (domain or fragment)”, the dissociation constant (Kd) (in general, the concentration at which binding is half-saturated) in assay [1] came to 100 µM.
Turning to “Human ubiquitin (monoUb) (from UniProt P0CG48 1-76) (natural protein)”, the Kd in assay [2] turned out to be 40 µM; in assay [3], 120 µM.
As to “K48-linked diubiquitin (from UniProt P0CG48 1-76) (complex)”, in assay [2], the dissociation constant Kd worked out at 8.4 µM.
In turn, “K63-linked diubiquitin (from UniProt P0CG48 1-76) (complex)” returned a Kd in assay [3] of 10.2 µM.
